{"source": "paper PMC6941876", "about": "“White Spot Syndrome Virus Establishes a Novel IE1/JNK/c-Jun Positive Feedback Loop to Drive Replication”", "binders": {"B1": {"name": "249-AP-1 probe (dsDNA)", "DNA 1": "TAGGAATTTCGCTGACGTCAATAAACTGGTTT", "DNA 2": "AAACCAGTTTATTGACGTCAGCGAAATTCCTA"}, "B2": {"name": "IE1-AP-1-2 probe (dsDNA)", "DNA 1": "GGAATTTCCTTGTTACTCATTTATTCCTAGA", "DNA 2": "TCTAGGAATAAATGAGTAACAAGGAAATTCC"}, "B3": {"name": "IE1-AP-1-1 probe (dsDNA)", "DNA 1": "GAAAATGGCTGTTTGAATCATGTTAAGGAATT", "DNA 2": "AATTCCTTAACATGATTCAAACAGCCATTTTC"}, "B4": {"name": "056-AP-1 probe (dsDNA)", "DNA 1": "GTACCAGATGTGAGTCAAACCGTTTCTGG", "DNA 2": "CCAGAAACGGTTTGACTCACATCTGGTAC"}, "B5": {"name": "Mut-unBio-IE1-AP-1-1 (dsDNA)", "DNA 1": "GAAAATCGCTGTTCCCATCCTGTTAAGGAATT", "DNA 2": "AATTCCTTAACAGGATGGGAACAGCGATTTTC"}, "B6": {"name": "403-AP-1 probe (dsDNA)", "DNA 1": "ATTTCCAAGAATTTTGCTGACGTCAATGGACC", "DNA 2": "GGTCCATTGACGTCAGCAAAATTCTTGGAAAT"}}, "key": {"[1]": {"molecular_target": "T1, rLvc-Jun (Litopenaeus vannamei, UniProt A0A0A7W5M9 1-293)", "T1 chain": "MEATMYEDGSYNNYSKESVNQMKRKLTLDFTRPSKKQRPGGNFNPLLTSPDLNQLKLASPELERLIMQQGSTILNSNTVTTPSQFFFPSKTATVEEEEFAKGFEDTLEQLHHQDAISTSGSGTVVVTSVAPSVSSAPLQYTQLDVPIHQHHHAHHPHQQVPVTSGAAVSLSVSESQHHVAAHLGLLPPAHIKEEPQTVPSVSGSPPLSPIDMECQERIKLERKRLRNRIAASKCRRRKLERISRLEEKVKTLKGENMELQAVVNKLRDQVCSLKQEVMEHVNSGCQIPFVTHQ", "assay": "EMSA; EMSA with biotin-labeled probes; buffer, salt, pH and temperature not in the material", "details": "protein: recombinant, tags: GST tag removed with enterokinase, chain copies: 0, blunt"}, "[2]": {"molecular_target": "T1, rLvc-Jun", "assay": "competition; 10-, 50-, 100-fold excess over biotin IE1-AP-1-1; EMSA with biotin-labeled probes; buffer, salt, pH and temperature not in the material", "details": "protein: recombinant; tags: GST tag removed with enterokinase; chain copies: 0; label: none; blunt"}}}
{"binder": "B1", "values": [{"measurement": "binding result", "setting": "[1]; label: biotin", "result": "binds"}]}
{"binder": "B2", "values": [{"measurement": "binding result", "setting": "[1]; label: biotin (probe)", "result": "binds"}]}
{"binder": "B3", "values": [{"measurement": "binding result", "setting": "[1]; label: biotin (probe)", "result": "binds"}]}
{"binder": "B4", "values": [{"measurement": "binding result", "setting": "[1]; label: biotin", "result": "binds"}]}
{"binder": "B5", "values": [{"measurement": "binding result", "setting": "[2]", "result": "no binding"}]}
{"binder": "B6", "values": [{"measurement": "binding result", "setting": "[1]; label: biotin", "result": "binds"}]}
